Data published in paper PMC4407828 (Nature communications, 2015).

Biological target: GST-Tip60 (UniProt Q92993 1-513)
Test: pull-down

GST-Tip60, sequence (Q92993 whole entry): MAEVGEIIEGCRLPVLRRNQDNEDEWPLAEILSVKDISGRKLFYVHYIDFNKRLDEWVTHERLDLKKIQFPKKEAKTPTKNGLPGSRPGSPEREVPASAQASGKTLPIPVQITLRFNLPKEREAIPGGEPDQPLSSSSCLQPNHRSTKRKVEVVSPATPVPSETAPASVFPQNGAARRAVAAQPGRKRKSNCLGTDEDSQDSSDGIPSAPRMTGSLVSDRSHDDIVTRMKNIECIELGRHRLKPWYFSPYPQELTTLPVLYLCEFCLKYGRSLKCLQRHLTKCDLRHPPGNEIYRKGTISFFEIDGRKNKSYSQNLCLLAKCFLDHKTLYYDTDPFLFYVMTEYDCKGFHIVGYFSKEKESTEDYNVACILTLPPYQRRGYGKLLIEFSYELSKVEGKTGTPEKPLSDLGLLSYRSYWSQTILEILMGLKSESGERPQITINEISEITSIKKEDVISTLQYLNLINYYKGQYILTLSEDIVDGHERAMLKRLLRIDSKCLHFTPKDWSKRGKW

binding result: binds
B1: His-ATF3 (natural protein, UniProt P18847 1-181, looked up)
chain: MMLQHPGQVSASEVSASAIVPCLSPPGSLVFEDFANLTPFVKEELRFAIQNKHLCHRMSSALESVTVSDRPLGVSITKAEVAPEEDERKKRRRERNKIAAAKCRNKKKEKTECLQKESEKLESVNAELKAQIEELKNEKQHLIYMLNLHRPTCIVRAQNGRTPEDERNLFIQQIKEGTLQS
